Where two headings read alike, the source gives them in different places.

The target in assay [1] is T1, Full-length human Tau (MAPT) (human, UniProt P10636-8 1-441).
Assay [2] concerns the target Cdk2-phosphorylated Tau (PTau^Cdk2) (human, UniProt P10636-8 1-441, phosphorylated in vitro by Cdk2/CyA2, heterogeneously; LC-MS/MS confirmed phosphorylation of the AT8 (S202 and T205), AT180 (T231 and S235) and PHF1 (S396 and S404) epitopes; full list of sites in …). Description: Cdk2-phosphorylated Tau.
The target of assay [3] is T1, Full-length human Tau (MAPT). The experiment in a line: previously reported (ref 2).

T1 sequence (P10636 other isoform, or with tags, fused parts or gaps): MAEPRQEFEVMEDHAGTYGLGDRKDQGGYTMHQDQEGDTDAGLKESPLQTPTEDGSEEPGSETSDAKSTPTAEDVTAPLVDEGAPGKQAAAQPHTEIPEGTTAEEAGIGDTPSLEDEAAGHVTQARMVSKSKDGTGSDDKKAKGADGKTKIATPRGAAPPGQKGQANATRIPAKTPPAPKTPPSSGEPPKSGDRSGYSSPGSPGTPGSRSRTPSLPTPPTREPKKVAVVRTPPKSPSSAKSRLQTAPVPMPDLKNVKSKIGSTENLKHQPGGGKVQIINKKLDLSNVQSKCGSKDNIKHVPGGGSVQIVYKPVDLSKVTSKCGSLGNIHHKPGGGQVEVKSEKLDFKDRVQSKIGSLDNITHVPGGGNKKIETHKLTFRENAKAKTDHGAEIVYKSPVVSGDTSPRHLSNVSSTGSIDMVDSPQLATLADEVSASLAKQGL
Chain of Cdk2-phosphorylated Tau (PTau^Cdk2) (P10636 other isoform, or with tags, fused parts or gaps): as above

B1: Hsp90 (HSP90AB1) (natural protein)
chain: not shown
In general, Kd refers to the constant that tells how readily two partners part at equilibrium. Consider B1, for which the Kd came out at 4.1 µM in assay [1], 27.9 µM in assay [2] and 4.8 µM in assay [3].

Values taken from publication PMC9237115 (2022).
